{"source": "patent US20110177074A1", "about": "(ZymoGenetics, published 2011)", "binders": {"B1": {"name": "human VEGFR-2-Fc5 (Fc fusion)", "chain": "not shown", "notes": "also called VEGF Receptor-2"}}, "key": {"human VEGF-A165 [1]": {"biological_target": "T1, human VEGF-A165 (human, UniProt P15692 207-395)", "T1 construct": "R&D Systems; homodimer; also called recombinant human VEGF-A", "assay": "SPR (Biacore T100), VEGF-A immobilised, VEGFR-2-Fc5 analyte, bivalent analyte fit"}, "human VEGF-A165 [2]": {"biological_target": "T1, human VEGF-A165", "assay": "SPR, VEGF-A immobilised, positive control, 1:1 dissociation fit"}}}
{"binder": "B1", "values": [{"measurement": "Ka", "setting": "human VEGF-A165 [1]", "result": "1e+08", "unit": "M⁻¹"}, {"measurement": "Kd", "setting": "human VEGF-A165 [1]", "result": 10, "unit": "nM"}, {"measurement": "koff", "setting": "human VEGF-A165 [1]", "result": 0.0002, "unit": "s⁻¹"}, {"measurement": "kon", "setting": "human VEGF-A165 [1]", "result": 20000, "unit": "M⁻¹ s⁻¹"}, {"measurement": "koff", "setting": "human VEGF-A165 [2]", "result": "~0.0002", "unit": "s⁻¹"}]}
